The term IC50 denotes the point on the concentration scale where inhibition reaches its midpoint. Read a high IC50 as a need for much substance.

Common to all, as to details: modification not given
For experiment [1], the target named is HLA-DRB1*09:01 MHCII molecule (human). The experiment in a line: competition ELISA; 50 nM huCLIP-bio.
The target of experiment [2] is HLA-DRB1*11:01 MHCII molecule (human). The experiment in a line: competition ELISA; 50 nM huCLIP-bio. In general terms: In an ELISA, binding on a coated surface is turned into a signal by an enzyme label.
Experiment [3] concerns the target HLA-DRB1*15:01 MHCII molecule (human). The experiment in a line: competition ELISA; 50 nM huCLIP-bio.
The target of experiment [4] is HLA-DRB1*08:01 MHCII molecule (human). The experiment in a line: competition ELISA; 50 nM huCLIP-bio.
Experiment [5] deals with HLA-DRB1*04:01 MHCII molecule (human). The experiment can be described thus: competition ELISA; 50 nM huCLIP-bio.
In experiment [6] the target is HLA-DRB1*09:01 MHCII molecule (human). The experiment can be described thus: competition ELISA; 25 nM huCLIP-bio.
Experiment [7] has as its target HLA-DRB1*11:01 MHCII molecule (human). The experiment can be described thus: competition ELISA; 25 nM huCLIP-bio.
Experiment [8] has as its target HLA-DRB1*15:01 MHCII molecule (human). The experiment in a line: competition ELISA; 25 nM huCLIP-bio.
Experiment [9] addresses HLA-DRB1*08:01 MHCII molecule (human). The experiment can be described thus: competition ELISA; 25 nM huCLIP-bio.
Experiment [10] concerns the target HLA-DRB1*04:01 MHCII molecule (human). The experiment in a line: competition ELISA; 25 nM huCLIP-bio.

B1: mCLIP (peptide)
chain: PVSQMRMATPLLMRP
In the case of B1, the 50% inhibitory concentration (IC50) was 60.7 nM in experiment [1]; 36.8 nM in experiment [2]; 46.1 nM in experiment [3]; 69.4 nM in experiment [4]; 36.5 nM in [5]; 25 nM in [6]. The IC50 amounted to 22.6 nM in experiment [7], 14.6 nM in experiment [8], 36.6 nM in experiment [9] and 31.2 nM in experiment [10].

The values are drawn from patent US20240255522A1.
